Series [1] deals with the molecule itself. Nature of the series: crystal structure.
Series [2] deals with the molecule itself. The series is described as follows: crystal structure. This is another data set of the same source.

Read-outs that look alike come from different tables or passages of the source.

The results in this text go back to article PMC11128299 (Biophysics and Physicobiology, 2023).

What is called stoichiometry N is a count of units in the complex or per binding partner.

B1: KaiC-CV (KaiC with S431C and T432V substitutions) (enzyme)
chain: MTSAEMTSPNNNSEHQAIAKMRTMIEGFDDISHGGLPIGRSTLVSGTSGTGKTLFSIQFLYNGIIEFDEPGVFVTFEETPQDIIKNARSFGWDLAKLVDEGKLFILDASPDPEGQEVVGGFDLSALIERINYAIQKYRARRVSIDSVTSVFQQYDASSVVRRELFRLVARLKQIGATTVMTTERIEEYGPIARYGVEEFVSDNVVILRNVLEGERRRRTLEILKLRGTSHMKGEYPFTITDHGINIFPLGAMRLTQRSSNVRVSSGVVRLDEMCGGGFFKDSIILATGATGTGKTLLVSRFVENACANKERAILFAYEESRAQLLRNAYSWGMDFEEMERQNLLKIVCAYPESAGLEDHLQIIKSEINDFKPARIAIDSLSALARGVSNNAFRQFVIGVTGYAKQEEITGLFTNTSDQFMGAHSITDSHICVITDTIILLQYVEIRGEMSRAINVFKMRGSWHDKAIREFMISDKGPDIKDSFRNFERIISGSPTRITVDEKSELSRIVRGVQEKGPES
Take B1: in the series “crystal structure [1]”, the “stoichiometry N” value was determined as 6.

B2: KaiC-TV (KaiC with threonine at position 431 and valine at position 432) (enzyme)
chain: MTSAEMTSPNNNSEHQAIAKMRTMIEGFDDISHGGLPIGRSTLVSGTSGTGKTLFSIQFLYNGIIEFDEPGVFVTFEETPQDIIKNARSFGWDLAKLVDEGKLFILDASPDPEGQEVVGGFDLSALIERINYAIQKYRARRVSIDSVTSVFQQYDASSVVRRELFRLVARLKQIGATTVMTTERIEEYGPIARYGVEEFVSDNVVILRNVLEGERRRRTLEILKLRGTSHMKGEYPFTITDHGINIFPLGAMRLTQRSSNVRVSSGVVRLDEMCGGGFFKDSIILATGATGTGKTLLVSRFVENACANKERAILFAYEESRAQLLRNAYSWGMDFEEMERQNLLKIVCAYPESAGLEDHLQIIKSEINDFKPARIAIDSLSALARGVSNNAFRQFVIGVTGYAKQEEITGLFTNTSDQFMGAHSITDSHITVITDTIILLQYVEIRGEMSRAINVFKMRGSWHDKAIREFMISDKGPDIKDSFRNFERIISGSPTRITVDEKSELSRIVRGVQEKGPES
For the protein B2, the “stoichiometry N” value in the series “crystal structure [2]” is 6.
